Measurements taken from patent publication JP2020075879A (dated 2020).

Molecular target: T1, C末端FLAGタグを有する切り捨てられたヒトRNF43 (Ba/F3 E12細胞に発現) (human, UniProt Q68DV7 24-237)
T1 construct: also called E12細胞株; Ba/F3 E12トランスフェクタント
T1 sequence: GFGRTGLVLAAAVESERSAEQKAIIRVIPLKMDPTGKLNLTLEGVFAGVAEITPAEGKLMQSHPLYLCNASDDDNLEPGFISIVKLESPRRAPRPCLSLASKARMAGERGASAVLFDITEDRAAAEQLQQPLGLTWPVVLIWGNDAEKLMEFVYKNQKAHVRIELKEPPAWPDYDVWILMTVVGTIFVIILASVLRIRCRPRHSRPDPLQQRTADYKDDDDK
Experiment: flow cytometry on Ba/F3 E12 cells, antibody at 2.5 microg/ml, PE anti-human IgG detection

binding result: binds
B1: 抗RNF43単一特異性抗体RNN0802 (antibody, human IgG1, kappa, N297A, V domains shown)
VH: QSLEESGGRLVTPGGSLTLTCRVSGFSLSNYDMSWVRQAPGKGLEWIGFITSSGRTYYASWAKGRFTISKTSTMVDLKITSPTTEDTATYFCARDFENDDSAMWGPGTLVTVSS
VL: DVVMTQTPSSVSAAVGGTVTINCQASQSVYDNNLAWYQQKPGQPPKLLIYKASKLASGVPSRFKGSGSGTEFTLTISDLECADAATYYCQSNYYSNTNGLGSFGGGTKVEIKR
notes: also called 単一特異的RNN0802; 単一特異的RNN0802(二価IgG)
